The results in this text go back to patent US20220160891A1 (Johns Hopkins, published 2022).

In assay [1] the target is biotinylated human IL-2Ralpha extracellular domain (residues 1-214) (human) (UniProt P01589). As to the kind of experiment: bio-layer interferometry equilibrium titration on immobilized hIL-2Rα, response MW normalized. (In general: BLI is a label-free optical method that tracks binding on a fibre tip over time.)
In assay [2] the target is T1, yeast surface-displayed human IL-2 (residues 1-133) (human, UniProt P60568 21-153).
T1 construct: also called hIL-2; not shown: yeast display anchor encoded by the pCT302 vector
Description: yeast surface display titration of soluble antibody, flow cytometry; apparent bivalent affinity. As to the method:
(§1) Yeast surface binding studies. […] Cells were then washed and stained with a 1:200 dilution of Alexa647-conjugated streptavidin (Thermo) in PBSA for 15 minutes at 4° C. After a final wash, cells were analyzed for antibody binding using a CytoFLEX flow cytometer (Beckman Coulter). Background-subtracted and normalized binding curves were fitted to a first-order binding model and equilibrium dissociation constant (KD) values were determined using GraphPad Prism.
(§2) A rapid small-scale HEK 293F cell transfection assay was developed to optimize immunocytokine expression. […] After a 3-day incubation, secreted protein was captured from the supernatant with protein G resin, eluted with 0.1 M glycine pH 2.0, and analyzed via SDS-PAGE. […] Immunocytokine expression was scaled up in HEK 293F cells and the secreted protein was purified via protein G affinity chromatography followed by size-exclusion chromatography.
Background: In flow cytometry, cells or beads pass a laser one at a time.

The target in assay [3] is T2, biotinylated human IL-2 immobilized on streptavidin-coated tips (human, UniProt P60568 21-153, biotinylated (site not stated)).
T2 construct: also called biotinylated hIL-2; immobilized hIL-2; not shown: tags and biotinylation site of the biotinylated hIL-2 construct are not described (the BAP tag is described only for hIL)
As to the kind of experiment: bio-layer interferometry equilibrium titration on immobilized hIL-2, response MW normalized. As to the method:
(§3) Bio-layer interferometry binding studies. […] Less than 5 signal units (nm) of receptor was immobilized to minimize mass transfer effects. […] An irrelevant protein was included in a reference well to subtract non-specific binding. Surface regeneration for all interactions was conducted using a 15 second exposure to 0.1 M glycine pH 3.0. Experiments were carried out in PBSA (phosphate-buffered saline, pH 7.3 plus 0.1% bovine serum albumin (BSA, Thermo Fisher Scientific)) at 25° C. Data was visualized and processed using the Octet® Data Analysis software version 7.1 (Molecular Devices). Equilibrium titration curve fitting and KD value determination was implemented using GraphPad Prism, assuming all binding interactions to be first order.

Assay [4] concerns the target T2, biotinylated human IL-2 immobilized on …. The description is as above. As to the method: as §3
The source holds these as a separate data set.

The target of assay [5] is T3, yeast surface-displayed mouse IL-2 (residues 1-149) (mouse, UniProt P04351 21-169).
T3 construct: range 1-149; also called mIL-2; not shown: yeast display anchor encoded by the pCT302 vector
T3 sequence (looked up): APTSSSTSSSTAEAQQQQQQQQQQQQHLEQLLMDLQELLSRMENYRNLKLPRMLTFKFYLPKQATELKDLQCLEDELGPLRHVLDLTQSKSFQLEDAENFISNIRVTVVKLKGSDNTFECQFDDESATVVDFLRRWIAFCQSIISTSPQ
As to the kind of experiment: yeast surface titration on mIL-2-displaying yeast, flow cytometry, normalized MFI.

The target in assay [6] is T1, yeast surface-displayed human IL-2 …. Description: yeast surface titration on hIL-2-displaying yeast, flow cytometry, normalized MFI. On the procedure: as §1
The target is the same in assay [7]. The description is as above. As to the method: as §1, §2
The source holds these as a separate data set.

Where two headings read alike, the source gives them in different places.

T1 sequence (P60568 21-153): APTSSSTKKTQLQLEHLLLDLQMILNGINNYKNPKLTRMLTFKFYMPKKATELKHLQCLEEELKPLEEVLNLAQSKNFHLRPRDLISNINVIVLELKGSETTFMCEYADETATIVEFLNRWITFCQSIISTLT
T2 sequence (P60568 21-153): as above

Turning to “human IL-2 cytokine (residues 1-133), soluble, C-terminal hexahistidine tag (from UniProt P60568 21-153) (ligand)”, the EC50 (read off the curve) in assay [1] is 5 nM.
Same read-out and setting: with “hIL-2/F5111 complex (from UniProt P60568 21-153)” the figure was 8 nM.

B1: recombinant F5111 antibody (human IgG1 lambda) (antibody, V domains shown)
VH: QLQLQESGPGLVKPSQTLSLTCTVSGGSISSGGYYWSWIRQHPGKGLEWIGYIYYSGSTYYNPSLKSRVTISVDTSKNQFSLKLSSVTAADTAVYYCARTPTVTGDWFDPWGRGTLVTVSS
VL: NFMLTQPHSVSESPGKTVTISCTRSSGSIASNYVQWYQQRPGSSPTTVIYEDNQRPSGVPDRFSGSIDSSSNSASLTISGLKTEDEADYYCQSYDSSNVVFGGGTKLTVLG
notes: also called F5111 Ab; monoclonal antibody F5111
As to B1, the Kd in assay [2] was found to be 0.43 nM; in assay [7] it was 0.42 nM. Further, the “EC50 (read off the curve)” value in assay [3] was ~3 nM; in assay [4], ~0.6 nM; in assay [6], ~0.08 nM. Besides, the binding result in assay [5] is “no binding (tested: about 1e-7 M)”.

By EC50 (read off the curve) is commonly meant the concentration giving half of the maximal effect. A lower EC50 (read off the curve) goes with higher potency in that assay.
